# Data: publication PMC2873993, “Comparative Therapeutic Effects of Velaglucerase Alfa and Imiglucerase in a Gaucher Disease Mouse Model” (PLoS ONE, 2010)
# Where a chain is given by its changes, count along the chain named. Like-named read-outs stand apart in the source and are kept apart here.
# B1: velaglucerase alfa (protein)
# chain: ARPCIPKSFGYSSVVCVCNATYCDSFDPPTFPALGTFSRYESTRSGRRMELSMGPIQANHTGTGLLLTLQPEQKFQKVKGFGGAMTDAAALNILALSPPAQNLLLKSYFSEEGIGYNIIRVPMASCDFSIRTYTYADTPDDFQLHNFSLPEEDTKLKIPLIHRALQLAQRPVSLLASPWTSPTWLKTNGAVNGKGSLKGQPGDIYHQTWARYFVKFLDAYAEHKLQFWAVTAENEPSAGLLSGYPFQCLGFTPEHQRDFIARDLGPTLANSTHHNVRLLMLDDQRLLLPHWAKVVLTDPEAAKYVHGIAVHWYLDFLAPAKATLGETHRLFPNTMLFASEACVGSKFWEQSVRLGSWDRGMQYSHSIITNLLYHVVGWTDWNLALNPEGGPNWVRNFVDSPIIVDITKDTFYKQPMFYHLGHFSKFIPEGSQRVGLVASQKNDLDAVALMHPDGSAVVVVLNRSSKDVPLTIKDPAVGFLETISPGYSIHTYLWRRQ
# modifications: N-linked oligosaccharides with higher α-mannosyl content (predominant number of mannoses is 9)
# B2: imiglucerase (protein)
# chain: B1 chain with R495H
# modifications: short N-linked oligosaccharide chains with ~3 exposed α-mannosyl residues
# How the values were obtained:
# 9 V/null mice [1] = assay: Injection-related deaths; type: in vivo, mouse; settings: 60 U/kg once a week for 8 weeks
# Experimental: With additional injections, IgG positivity increased in all dosing groups and several mice died. With the 5 or 15 U/kg/wk doses only a few mice died, whereas with 60 U/kg/wk doses, 9/42 Vela-injected and 20/59 Imig-injected mice died following injections during the 4- to 8-wk period (Table 5). Prior to death, these mice became immobile and their lips/tails became cyanotic. Most mice died within 30 to 60 min post-injection. However, placing treated mice in an oxygen chamber for 20 to 30 min after injection led to the survival of most of the animals. The mice that succumbed were immediately dissected, and sera were analyzed for IgE titers and histology. […] Total serum IgE levels from these mice injected with Vela or Imig were 46.4 to 234.9 ng/ml (n = 3) or 115.8 to 239.6 ng/ml (n = 3), respectively (p = 0.3626). In comparison, saline-injected 9 V/null serum values were 6.8 to 8.8 ng/ml (n = 6) (Fig. 7B).
# Mice were anesthetized with isoflurane.
# [2] = GCase activity assay with NBD-GC substrate; type: biochemical; settings: mean ± SE, n = 10
# Experimental: Vela and Imig were compared for kinetic properties as described. Briefly, the standard GCase activity assay contained final concentrations of 50 mM citrate/phosphate, pH 5.5, 0.25% TC, 0.25% TX, and 4 mM 4MU-Glc in 200 µl. The reactions were stopped after incubation (30–60 min, 37°C) using 0.9 M ethylenediamine, pH 11.0 (100 µl). Standard curves for 4-MU fluorescence yield were generated for each assay with Ex/Em 460/515 nm (Molecular Dynamics SpectraMax GeminXS spectrofluorometer). […] For the reversible competitive inhibitors, Ki was calculated from IC50 = Ki (1+ [I]/[Km]). The IC50 or Ki values for various inhibitors (dNM and its derivatives, CBE, CS, IFG, DNPFG) were determined using 4MU-Glc as substrate. Activities with the NBD-GC substrate were as described. Enzyme assays with saposin C (0–500 nM/0.5 µM BPS) and BPS (0–2 µM) were as described, [40]. Saposin C was expressed in E. coli and purified as described. […] Protease susceptibilities of the two GCases were evaluated by cathepsin D (1–2 µM) digestion in 25 mM sodium acetate, pH 4.8, 50 mM NaCl, 1.25 mM EDTA, 1.25 mM DTT using 200 ng of Vela or Imig at 37°C for 4 h. […] The amounts of intact enzyme were determined from density measurements on immunoblots and were compared to the initial amounts. […]
# 9 V/null mice [3] = assay: Total serum IgE ELISA in mice that died after injection; settings: mice that died after 4 or 5 injections of 60 U/kg/wk, n = 3
# [4] = GCase activity assay with 4MU-Glc substrate; type: biochemical; settings: for GCase activity, 4MU-Glc: mean ± SE; for GCase activity, 4MU-Glc / Km: n = 6
# Experimental: (§1) Vela and Imig were compared for kinetic properties as described. Briefly, the standard GCase activity assay contained final concentrations of 50 mM citrate/phosphate, pH 5.5, 0.25% TC, 0.25% TX, and 4 mM 4MU-Glc in 200 µl. The reactions were stopped after incubation (30–60 min, 37°C) using 0.9 M ethylenediamine, pH 11.0 (100 µl). Standard curves for 4-MU fluorescence yield were generated for each assay with Ex/Em 460/515 nm (Molecular Dynamics SpectraMax GeminXS spectrofluorometer). […] For the reversible competitive inhibitors, Ki was calculated from IC50 = Ki (1+ [I]/[Km]). The IC50 or Ki values for various inhibitors (dNM and its derivatives, CBE, CS, IFG, DNPFG) were determined using 4MU-Glc as substrate. Activities with the NBD-GC substrate were as described. Enzyme assays with saposin C (0–500 nM/0.5 µM BPS) and BPS (0–2 µM) were as described, [40]. Saposin C was expressed in E. coli and purified as described. For thermostability assessments, equal amounts of Vela and Imig activities were added to 50 mM citrate/phosphate, pH 7.4, with or without human/mouse serum, and incubated for 0–240 min at 25 or 37°C. The pH optimum profiles were developed using 50 mM citrate/phosphate, pH 4.4–7.2. Protease susceptibilities of the two GCases were evaluated by cathepsin D (1–2 µM) digestion in 25 mM sodium acetate, pH 4.8, 50 mM NaCl, 1.25 mM EDTA, 1.25 mM DTT using 200 ng of Vela or Imig at 37°C for 4 h. All assays were conducted in triplicate and repeated at least twice. The amounts of intact enzyme were determined from density measurements on immunoblots and were compared to the initial amounts. The ratios of intact enzyme with and without cathepsin D were used as indicators of the enzyme's proteolytic susceptibility.
# 9 V/null mice [5] = assay: Mouse anti-human GCase IgG ELISA
# [6] = Serum GCase activity, CRIM and CRIM-SA after i.v. bolus; settings: for Recovery of injected activity in serum: 60 U/kg bolus, peak 2 min, % ± SE
# cathepsin D = assay: Protease susceptibility to cathepsin D digestion; type: biochemical; settings: for degradation by cathepsin D after 4 h: cathepsin D 1 µg/ml; for degradation by cathepsin D within 4 h: cathepsin D 2 µg/ml
# Experimental: as §1, with “Protease susceptibilities of the two GCases were evaluated by cathepsin D (1–2 µM) digestion in 25 mM sodium acetate, pH 4.8, 50 mM NaCl, 1.25 mM EDTA, 1.25 mM DTT using 200 ng of Vela or Imig at 37°C for 4 h.” left out
# patients = settings: human, in vivo; cited from earlier work
# 9 V/null mice [7] = settings: mouse, in vivo
# [8] = mouse, in vivo
molecule,measurement,setting,value
B1,Death (%) of total injected mice,9 V/null mice [1]; No-oxygen,22.6%
same,"Death, number of mice",9 V/null mice [1]; No-oxygen,7
same,Death (%) of total injected mice,9 V/null mice [1]; Oxygen chamber minimum 20 min,18.2%
same,"Death, number of mice",9 V/null mice [1]; Oxygen chamber minimum 20 min,2
same,Death (%) of total injected mice,9 V/null mice [1]; Total number,21%
same,"Death, number of mice",9 V/null mice [1]; Total number,9
same,"GCase activity, NBD-GC",[2],"1,321,057±67,237 nmole/h/mg"
same,Total serum IgE levels,9 V/null mice [3],46.4 to 234.9 ng/mL
same,greater activity compared to Imig,[4]; 4MU-Glc and GC substrates,6–10%
same,"GCase activity, 4MU-Glc",[4],"1,030,480±2,692 nmole/h/mg"
same,Km,[4],1590 ± 200 µM
same,serum anti-GCase IgG signals,"9 V/null mice [5]; 5 or 15 U/kg/wk, each bleed",at background or very low levels
same,injected mice with increased serum anti-GCase IgG,"9 V/null mice [5]; 60 U/kg/wk, by the 4th injection",> 50%
same,increase of serum anti-GCase IgG levels above background,"9 V/null mice [5]; 60 U/kg/wk, by the 4th injection, at ∼3×10^3 dilution",~3 fold
same,Recovery of injected activity in serum,[6]; 5-wk 9 V/null mice,63.06±4.62%
same,serum activity by 20 min post-injection,"[6]; 9 V/null mice, 60 U/kg i.v.",< 10 % of the 2-min values
same,t½ of clearance of GCase activity in serum,"[6]; 9 V/null mice, 60 U/kg i.v.",8 to 11 min
same,Recovery of injected activity in serum,[6]; 20-wk 9 V/null mice,58.16±1.61%
same,catalytic value (CRIM-SA) of intact enzyme remaining in serum by 20 min,[6]; 60 U/kg i.v.,< 10 % of its original catalytic value
same,t½ of GCase CRIM disappearance in serum,"[6]; both age groups, 60 U/kg i.v.",~0.217 h
same,degradation by cathepsin D after 4 h,cathepsin D,72–76%
same,degradation by cathepsin D within 4 h,cathepsin D,completely degraded
B2,Death (%) of total injected mice,9 V/null mice [1]; No-oxygen,48.4%
same,"Death, number of mice",9 V/null mice [1]; No-oxygen,15
same,Death (%) of total injected mice,9 V/null mice [1]; Oxygen chamber minimum 20 min,17.9%
same,"Death, number of mice",9 V/null mice [1]; Oxygen chamber minimum 20 min,5
same,Death (%) of total injected mice,9 V/null mice [1]; Total number,34%
same,"Death, number of mice",9 V/null mice [1]; Total number,20
same,documented IgE-mediated or anaphylactic reactions,patients,< 1%
same,patients who developed an IgG antibody response,patients,13–15%
same,"GCase activity, NBD-GC",[2],"1,191,610±56,390 nmole/h/mg"
same,injected mice with increased serum anti-GCase IgG,9 V/null mice [7],> 50%
same,"GCase activity, 4MU-Glc",[4],"966,000±8,467 nmole/h/mg"
same,Km,[4],1650 ± 250 µM
same,time liver activity remained at ≥WT level,[8],~180 min
same,decrease of spleen enzyme activity by 40 min,[8]; iv,~40%
same,enzyme localized to the liver interstitial cells,[8]; iv,≥ 80%
same,enzyme recovered in spleens and lungs,[8]; iv,< 5%
same,injected enzyme recovered from the liver,[8]; iv,≥ 60%
same,peak spleen activity lower than in 20-wk mice,[8]; iv,2- to 3 fold
same,t½ of CRIM disappearance in liver,[8]; iv,1.5 to 1.83 h
same,t½ of CRIM levels in spleen,[8]; iv,~1 h
same,t½ of GCase activity disappearance in liver,[8]; iv,~1.67 h
same,t½ of GCase protein disappearance in spleen,[8]; iv,1.0 to 1.5 h
same,t½ of activity disappearance in liver,[8]; iv,about 60 min
same,degradation by cathepsin D after 4 h,cathepsin D,72–76%
same,degradation by cathepsin D within 4 h,cathepsin D,completely degraded
